The values that follow come from patent US20030092616A1, “STAT6 activation gene” (priority 2001, published 2003).

B1: 50 (nucleic acid, listed as Homo sapiens)
chain: AATTCAACATGGCAGCCATGCGCTGGCGATGGTGGCAGCGGCTGTTACCTTGGAGGTTGCTGCAGGCCCGTGGCTTTCCACAAAATTCTGCACCCAGCCTGGGCCTAAGAGCGAGGACTTATTCCCAGGGCGACTGCTCGTATTCGCGCACGGCGCTGTATGATCTGCTCGGCGTCCCCTCCACAGCCACGCAGGCCCAAATCAAGGCGGCTTACTACCGTCAGTGCTTTCTCTACCACCCGGACCGCAACTCCGGGAGCGCGGAGGCCGCCGAGCGCTTCACGCGCATCTCCCAGGCCTACGTGGTGCTGGGCAGTGCCACCCTCCGTCGCAAGTATGATCGCGGCCTACTCAGCGACGAGGACCTGCGCGGACCTGGCGTCCGGCCCTCCAGGACGCCCGCACCCGACCCCGGCTCGCCGCGTACCCCGCCGCCCACCTCTCGGACCCACGACGGTTCTCGGGCCTCCCCCGGCGCCAACCGCACGATGTTCAACTTTGACGCCTTCTACCAGGCCCACTACGGGGAACAACTGGAGCGGGAACGGCGCCTGAGGGCCCGGCGGGAGGCCCTTCGCAAACGGCAGGAGTATCGGTCCATGAAAGGCCTCCGCTGGGAGGATACCCGAGACACGGCTGCCATTTTCCTCATCTTTTCAATCTTCATCATCATCGGCTTTTATATTTAATCGGAGAGAGAAGGGAAGGGGAGTGTCCCCAGCCAACCCCCCAGAAACGGCCTTTTTTCCTGCCTCTGAACCCTTGGCCGTTGATAGTCTACCTTTGCTGGGATCCGAAGGAACTGTACTCCCCCTGCCCTCCCCGACCCGCCCAGCTTAGCCGATGACCTGCACATCGCTCCACTGTGGTCCAGAAAAGGAGGCCTTTCGATGTCTGAGAAAGAGGCCCCACGCTGTAGAGTCCCGAAAGCCCAGGAGTGAAGGGGGTTCCTGGAGTCTCTAGGGTGCTTCTTCCAGAGTCTGTCTTCTTGCTTCCAGATGTGGTCAACTTCTGGAACACTCGCTGTAGCTTTATTGTTTAGCCCCAAGCAAGATTTATCTCCTCCTGCCCCGCATGTGTATGGTGGGCCTCTGTAACCTTGAAATGTGCAATGTGACCAATTGTTGACTACCAAAAGAAAAGGTCTGGGGTTGT
modifications: CDS (9)..(686)
B2: 241 (nucleic acid, listed as Homo sapiens)
chain: GGGGTGTCCAGTTGGTTGCCGCGGCAGTCTCTCCGAGCAGCGCATTTGTCTTCTAGGCTGCTTGGTTCGTGCCTCCGAGAAAGGGGTCTCCTGCTGCCAGCTAAGTGTGGGAGAACTTGTGCACGTATCTCCCCTCCGAATCCCAACGATGGGTAACGCCAGCTTTGGCTCCAAGGAACAGAAGCTGCTGAAGCGGTTGCGGCTTCTGCCCGCCCTGCTTATCCTCCGCGCCTTCAAGCCCCACAGGAAGATCAGAGATTACCGCGTCGTGGTAGTCGGCACCGCTGGTGTGGGGAAAAGTACGCTGCTGCACAAGTGGGCGAGCGGCAACTTCCGTCATGAGTACCTGCCGACCATTGAAAATACCTACTGCCAGTTGCTGGGCTGCAGCCACGGTGTGCTTTCCCTGCACATCACCGACAGCAAGAGTGGCGACGGCAACCGCGCTCTGCAGCGCCACGTTATAGCCCGGGGCCACGCCTTCGTCCTGGTCTACTCAGTCACCAAGAAGGAAACCCTGGAAGAGCTGAAGGCCTTCTATGAGCTGATCTGCAAGATCAAAGGTAACAACCTGCATAAGTTCCCCATCGTGCTGGTGGGCAATAAAAGTGATGACACCCACCGGGAGGTGGCCCTGAATGATGGTGCCACCTGTGCGATGGAGTGGAATTGCGCCTTCATGGAGATTTCAGCCAAGACCGATGTGAATGTGCAGGAGCTGTTCCACATGCTGCTGAATTACAAGAAAAAGCCCACCACCGGCCTCCAGGAGCCCGAGAAGAAATCCCAGATGCCCAACACCACTGAGAAGCTGCTTGACAAGTGCATAATCATGTGAGCCCTGGGCCTTAAGAGCCAGCTCTTCCTATCCTGTAGCGTGTAGAAAACGTGGACTCATTTCACTATGTTACATGTACATGGTTGATTTTGTGCTGTTGTTTGGACTGTAACATCCATGTTGTCAATACGTATACCTTGTAAGTGGATAACTTTTCTTTTTCCCAGGCCAGAGAATTCAAATTGTTAAAACATTGGCATTTGAAGAGGAGAACAAAATGTAGCATGATGTATTTAAAGTAAGGCCTTTAGTAATGAATGTAATGAGAGAAAATGTTTTGAAAAGAACAAAACATCAAAATGAATAGAAAGAAAAATTGGAAGGCGTCCTTTTGGTAACCCGATTATTGTGTATTACCTTTAAATATTTCACATCCTGTAAGTGCTTAATCATATCTTTTAATTGTGTATTTAAGAAAAGTGTTTTCACAACAAAAGCTTTTGATAAATTGCTGCGTGACATATACTAAATAAAAAAATGAATATGTTGATCATTAGGGGTGTGGGAGCAGAGAAAATTGTGAAAGTGACTCTCACTAAAGATGTTAGTAGTTTCTCATGTCATTTAAAAATGTTTGAGTATTCTGCATAGCAGTTTGTAAAAGTGTAACAGCTTATTGACTTAATAAAGCTTTTCCTGCATGC
modifications: CDS (149)..(835)
B3: 56 (nucleic acid, listed as Homo sapiens)
chain: AGAGCCGCCGCCCAGGAAGGGGATGCGGAAACCCCTGGCTCGGTGGAGCGGAGAGGCAGGCGGGCAGGAGCCGAGGACGGCATGTCCCAGGCCCCGGGAGCACAGCCGAGCCCACCCACCGTGTACCACGAACGGCAGCGCCTGGAGCTGTGTGCTGTCCACGCCCTCAACAACGTTCTGCAGCAGCAGCTCTTTAGCCAGGAGGCTGCCGATGAGATCTGCAAGAGGTTGGCCCCAGACTCCCGGCTGAACCCTCATCGCAGCCTCCTGGGCACCGGCAACTATGATGTCAATGTGATCATGGCCGCTCTGCAGGGGCTGGGCCTGGCCGCCGTGTGGTGGGACAGGAGGAGGCCCCTGTCCCAGCTGGCCCTGCCCCAGGTACTGGGGCTGATCCTGAACCTGCCCTCGCCCGTGTCGCTGGGGCTGCTGTCACTGCCGCTGCGCCGGCGGCACTGGGTGGCCCTGCGCCAGGTGGACGGTGTCTACTACAACCTGGACTCCAAGCTGCGGGCGCCCGAGGCCCTGGGGGATGAGGACGGAGTCAGGGCCTTCCTGGCGGCTGCGCTGGCCCAGGGCCTGTGCGAGGTGCTGCTGGTAGTGACCAAGGAGGTGGAGGAGAAGGGCAGCTGGCTGCGGACAGACTGACCATGGCTGACCATCGGCGCCCACAGCGCAGTCCCTGCGCATCCCCCTCCGGCTGCGCACACTGCATGCCTGGGAAAGGCCAGCACTTCATGGACCCTGGGGAGGCCCCGCCCCCTCCCCACACCCCTGCTCCCCACTGCCGCTGCTGCCTCAATAAATCTGCTGATTTGCTGCC
modifications: CDS (82)..(645)

The data set has as its system STAT6. Nature of the data set: Screening of full-length cDNA clones for promotion of STAT6 activation (luciferase reporter N4×8-luc). It is filed as cell-based. The following applies: NIH3T3 cells cotransfected with N4×8-luc reporter and cDNA plasmid; 48 h culture, then mouse IL-4 0.5 ng/ml for 6 h. Here is the method:
As a preferable method, NIH3T3 cells are inoculated on 10% FBS (Fetal Bovine Serum)-containing IMDM medium in a 96-well cell culture plate to a final cell density of 1×10^4 cells/well, and cultured for 24 hours at 37° C., in the presence of 5% CO2. Then, the luciferase reporter plasmid N4×8-luc which has a STAT6 response sequence, and the expression vector are cotransfected into the cells in a well using FuGENE 6 (Roche). After 48 hours of culture at 37° C., in the presence of 5% CO2 mouse IL-4 (Immuno Biological Laboratories Co., Ltd.) is added to a final concentration of 0.5 ng/ml. After culturing for further 6 hours, promoting activity for STAT6 activation is then measured by measuring luciferase activity using a long term luciferase assay system, Picagene LT2.0 (Toyo Ink Mfg). For example, luciferase activity can be measured using PerkinElmer's Wallac ARVOTMST 1420 MULTILABEL COUNTER. The method for gene introduction by FuGENE6, and measurement of luciferase activity by Picagene LT2.0 can be performed respectively according to the attached protocols. In a method of gene introduction with a 96-well plate using FuGENE6, the amount of FuGENE6 per 1 well is suitably 0.3 to 0.5 μl, preferably 0.3 μl; the amount of N4×8-luc reporter plasmid is suitably 50 to 100 ng, preferably 100 ng; and the amount of expression vector is suitably 50 to 100 ng, preferably 100 ng. An ability (action) to promote STAT6 activation refers to an ability to increase the reporter activity (luciferase activity) relative to the control experiment (for cells into which the reporter gene and a null vector were introduced). Increase in reporter activity is preferably by a factor of 1.5 or more, more preferably by a factor of 3 or more, and still more preferably by a factor of 6 or more.
NIH3T3 cells (purchased from Dainippon Pharmaceutical) were grown to 1×10^4 cells/well in a 96 well plate for cell culture for 24 hours at 37° C. (in the presence of 5% CO2) using 10% FBS containing IMDM medium. Then, 100 ng of luciferase reporter plasmid N4×8-luc having a STAT6 response sequence and 2 μl of the full-length cDNA prepared in above Example 1.(3) were cotransfected into the cells in a well using FuGENE 6 (purchased from Roche) according to the manufacturer's protocol. The luciferase reporter plasmid N4×8-luc having the STAT6 response sequence was constructed as follows. […] 157, 2058-2065 (1996)], oligonucleotides having the following sequences were synthesized:
The synthesized oligonucleotides were dissolved in sterile water to be 1μg/μl, respectively, mixed in 10 μl lots, and adjusted the volume to 32 μl with sterile water. The solution was heated for 5 min at 90° C., and gradually cooled down to room temperature to prepare a double-stranded oligonucleotide solution. The solution was reacted with T4 polynucleotide kinase (Takara Shuzo) according to the attached manual, then the reaction product was purified in a usual manner. Separately, SV40 promoter region of pGL3-Promoter vector (Promega) was replaced by the HSV thymidine kinase promoter sequence (from −50 to +10) with Hind III site and BglII site to construct a vector tk-luc. The aforesaid double-stranded oligonucleotide fragments were inserted into the XhoI site of this tk-luc vector using T4 DNA ligase (GIBCO/BRL). The obtained clones were sequenced according to a usual method, and clones in which plural oligonucleotide fragments were inserted were selected. […] The four-interlinked DNA fragments were excised from the N4×4-luc with a XhoI and a BglII site and purified to be inserted into a BamHI and a XhoI site of pBluescript II KS+ (Stratagene). The four-interlinked DNA fragments were excised from this plasmid with KpnI and SpeI and inserted into a KpnI and a NheI site of N4×4-luc plasmid to finally obtain N4×8-luc.
For the molecule B1, the “Activity = (luciferase activity of the gene of each SEQ ID NO:)/(luciferase activity of pME18S-FL3)” value is reported as 18.5. The result for B2 reads 54.3. The result for B3 reads 4.7.
